Legend:
poly-SUMO-2 chains (2-8) = poly-SUMO-2 chains (2-8) (UniProt P61956)
pro-SUMO-1 = pro-SUMO-1 (UniProt P63165)
pro-SUMO-1, sequence (P63165 whole entry): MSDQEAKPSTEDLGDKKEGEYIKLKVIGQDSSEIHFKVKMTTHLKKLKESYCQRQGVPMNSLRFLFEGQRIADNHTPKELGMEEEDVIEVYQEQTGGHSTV

poly-SUMO-2 chains (2-8), sequence (P61956 1-93): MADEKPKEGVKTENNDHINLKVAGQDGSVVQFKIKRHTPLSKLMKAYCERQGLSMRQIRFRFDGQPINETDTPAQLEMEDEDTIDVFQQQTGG

Substance: His6-SENP2CD (catalytic domain of SENP2)
- in vitro hydrolysis of poly-SUMO-2 chains, Coomassie staining (poly-SUMO-2 chains (2-8)): the catalytic domain of SENP2 (SENP2CD), a SUMO-specific protease, could hydrolyze SUMO chains to monomers
- in vitro hydrolysis of poly-SUMO-2 chains, SDS-PAGE and Coomassie staining (poly-SUMO-2 chains (2-8)): SENP2 reduced the chains to monomers
- in vitro hydrolysis of poly-SUMO-3 chains, Coomassie staining (poly-SUMO-3 chains (2-8)): the catalytic domain of SENP2 (SENP2CD), a SUMO-specific protease, could hydrolyze SUMO chains to monomers
- in vitro hydrolysis of poly-SUMO-3 chains, anti-SUMO-3 Western blot (poly-SUMO-3 chains (2-8)): An identical result was obtained when poly-SUMO-3(2-8) chains were tested
- in vitro processing of pro-SUMO-1, Coomassie staining (pro-SUMO-1): could hydrolyze SUMO chains to monomers (FIG. 12D, lane 10) and process pro-SUMO-1

— patent US20110033498
